Measurements as given in paper PMC4538837, “Structural basis for substrate recognition and processive cleavage mechanisms of the trimeric exonuclease PhoExo I”.

Molecular target: PhoExo I D80N (Pyrococcus horikoshii OT3, UniProt A0A060P168 1-229, D80N)
Test: X-ray crystal structure (1.95 A); Mg2+ (soaked), one at A metal site; EMSA: 25 mM Hepes-NaOH pH 7.5, 50 mM NaCl, 0.1 mM EDTA, 0.1 mg/ml BSA, 5 nM probe, 0-1600 nM trimer, 5 min 55 C, then 0.05% glutaraldehyde 10 min at room temperature; 7.5% native PAGE in TBE
Conditions: protein: recombinant; tags: C-terminal 4xHis (mutants made from the CHis plasmid; crystal construct not detailed in the material); chain copies: 3; single strand; 3 copies per trimer

Chain of PhoExo I D80N (A0A060P168 entry or part of it D80N | D80N D80N): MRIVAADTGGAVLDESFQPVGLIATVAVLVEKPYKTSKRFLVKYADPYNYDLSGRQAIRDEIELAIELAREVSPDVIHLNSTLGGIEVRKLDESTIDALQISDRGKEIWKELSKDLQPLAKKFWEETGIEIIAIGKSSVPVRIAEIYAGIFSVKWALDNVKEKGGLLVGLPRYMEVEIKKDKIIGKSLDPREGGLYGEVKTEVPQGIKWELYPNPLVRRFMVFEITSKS

Q: Does TTTTTTT (ssDNA) [poly-dT 7 nt] bind?
A: Result: binds
